According to paper PMC10000386:

Biological target: T1, Bak ΔBH3, Q16611
T1 chain: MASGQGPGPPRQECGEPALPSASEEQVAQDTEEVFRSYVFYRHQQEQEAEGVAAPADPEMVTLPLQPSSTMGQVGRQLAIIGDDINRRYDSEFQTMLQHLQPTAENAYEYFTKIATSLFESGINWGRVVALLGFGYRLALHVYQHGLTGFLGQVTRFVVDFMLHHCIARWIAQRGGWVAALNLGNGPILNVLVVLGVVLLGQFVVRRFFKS
Test: BiFC (flow cytometry)
Conditions: chain shown with the change; 6 independent experiments; read off a plot

response (Mean Venus/Mean mRFP): 0.95
B1: Bak, Q16611 H164A (protein)
chain: MASGQGPGPPRQECGEPALPSASEEQVAQDTEEVFRSYVFYRHQQEQEAEGVAAPADPEMVTLPLQPSSTMGQVGRQLAIIGDDINRRYDSEFQTMLQHLQPTAENAYEYFTKIATSLFESGINWGRVVALLGFGYRLALHVYQHGLTGFLGQVTRFVVDFMLAHCIARWIAQRGGWVAALNLGNGPILNVLVVLGVVLLGQFVVRRFFKS
